Like-named read-outs stand apart in the source and are kept apart here. Marks after values point to notes of the source that are not given here.
B1: Bradavidin-core: C-terminally truncated core form (118 amino acid residues, SEQ ID NO:2) of biotin-binding protein from Bradyrhizobium japonicum, produced in E. coli (protein, listed as Bradyrhizobium japonicum)
chain: QSVNWTWTNQYGSTLAITSFNSNTGAITGTYTNNAANSCDEGKPQGVTGWLAYGNTGTAISFSVNFLGCGSTTVWTGQLNNATGFQGLWYLSLAEAVAWNGISAGADTFTFSSGDKAL
B2: Avidin: chicken avidin (SEQ ID NO:6), glycosylated biotin-binding protein (protein)
chain: NSARSTPGCPPAAEMVHATSPLLLLLLLSLALVAPGLSARKCSLTGKWTNDLGSNMTIGAVNSRGEFTGTYITAVTATSNEIKESPLHGTQNTINKRTQPTFGFTVNWKFSESTTVFTGQCFIDRNGKEVLKTMWLLRS
B3: Bradavidin: full length wild-type (138 amino acid residues, SEQ ID NO:1) avidin-like biotin-binding protein from Bradyrhizobium japonicum (protein, listed as Bradyrhizobium japonicum)
chain: QSVNWTWTNQYGSTLAITSFNSNTGAITGTYTNNAANSCDEGKPQGVTGWLAYGNTGTAISFSVNFLGCGSTTVWTGQLNNATGFQGLWYLSLAEAVAWNGISAGADTFTFSSGDKALLTKSGVDLKAGSEKLSNTKK

Legend:
[1] = Fluorescent biotin conjugate dissociation assay; type: binding; settings: for Fluorescent biotin kdiss: ArcDia BF560-biotin; for Fluorescent biotin kdiss / Release 1 h of fluorescent biotin conjugate: 50° C.; for Release 1 h of fluorescent biotin conjugate: one hour, presence of excess free biotin; for Fluorescent biotin conjugate dissociation (in words): fluorescent biotin conjugate as ligand
Experimental: (§1) FIG. 2 Biotin dissociation analysis. (A) The [3H]biotin dissociation rate constant was measured at different temperatures. The values for streptavidin are from Klumb et al. (Klumb et al., 1998). The scale of the Y axis is logarithmic. (B) Release of fluorescent biotin conjugate from avidins was studied as a function of time in the presence of excess D-biotin at 50° C.
(§2) Ligand binding properties were studied both by [3H]biotin assay and fluorescent biotin conjugate assay. The dissociation rate constant of [3H]biotin (Amersham) from the bradavidins and avidin was measured at various temperatures as described in detail previously (Klumb et al., 1998). According to the results, (Table I, FIG. 2) the faster dissociation rate measured from bradavidin indicates weaker affinity toward the radiobiotin than those of avidin and streptavidin. The dissociation rate of a fluorescent biotin conjugate (ArcDia BF560™-biotin) was measured as previously described (Hytönen et al., 2004a) at 50° C.
(§3) The apparent molecular mass is indicated and followed by the theoretical mass in brackets. Transition temperature (Tr) indicates the temperature in which half of the protein is tetrameric and half monomeric in the absence (first value) and presence (second value) of biotin. In addition to the measured dissociation rate constant (kdiss), the release percentage of the fluorescent biotin conjugate in one hour in the presence of excess free biotin is indicated. Calculated isoelectrical point (pI) and the number of cysteine residues per monomer are also indicated.

[2] = SDS-PAGE based thermal stability (heat treatment); type: physicochemical
Source text: The thermal stability characteristics of the proteins were studied by a SDS-PAGE based method as previously described in detail by (Bayer et al., 1996).
as §3

[3] = values from Bayer et al., 1996, cited from earlier work
[4] = [3H]biotin dissociation rate assay; type: binding; settings: radio-biotin, different temperatures
Experimental: as §1, §2

Row | Molecule | Fluorescent biotin kdiss [1] | Release 1 h of fluorescent biotin conjugate [1] | Heat treatment SDS-PAGE Tr (transition temperature, half tetrameric and half monomeric) ([2]; absence of biotin) | Heat treatment SDS-PAGE Tr (transition temperature, half tetrameric and half monomeric) ([2]; presence of biotin) | Fluorescent biotin conjugate dissociation (in words) [1] | Heat treatment SDS-PAGE Tr (transition temperature) ([3]; absence of biotin) | Heat treatment SDS-PAGE Tr (transition temperature) ([3]; presence of biotin) | [3H]biotin dissociation rate (in words) [4]
1 | B1 | 1.2e-05 s⁻¹ | 4.4% | 70^ ° C. | 85 °C |  |  |  | 
2 | B2 | 0.00027 s⁻¹ | 71.5% |  |  | clearly the fastest in dissociation | 58^a ° C. | 100^a ° C. | clearly the slowest dissociation
3 | B3 | 1.5e-05 s⁻¹ | 4.7% | 65^ ° C. | 85 °C | very slow and small release |  |  | fastest dissociation rate
